In experiment [1] the target is recombinant sCD27 containing 6x his-Tag at the carboxyl terminus (human) (UniProt P26842). As to the kind of experiment: mock depletion on plate coated with control IgG, sCD27 ELISA of the supernatant. In general terms: In an ELISA, binding on a coated surface is turned into a signal by an enzyme label.
Experiment [2] deals with Myosin IIA (human) (UniProt P35579). Description: PolyHis pull-down with sCD27-his as bait from lysate of stimulated PBMCs, SDS-PAGE, mass spectrometry.
Chain of Myosin IIA (human) (P35579 2-1960 limits assumed): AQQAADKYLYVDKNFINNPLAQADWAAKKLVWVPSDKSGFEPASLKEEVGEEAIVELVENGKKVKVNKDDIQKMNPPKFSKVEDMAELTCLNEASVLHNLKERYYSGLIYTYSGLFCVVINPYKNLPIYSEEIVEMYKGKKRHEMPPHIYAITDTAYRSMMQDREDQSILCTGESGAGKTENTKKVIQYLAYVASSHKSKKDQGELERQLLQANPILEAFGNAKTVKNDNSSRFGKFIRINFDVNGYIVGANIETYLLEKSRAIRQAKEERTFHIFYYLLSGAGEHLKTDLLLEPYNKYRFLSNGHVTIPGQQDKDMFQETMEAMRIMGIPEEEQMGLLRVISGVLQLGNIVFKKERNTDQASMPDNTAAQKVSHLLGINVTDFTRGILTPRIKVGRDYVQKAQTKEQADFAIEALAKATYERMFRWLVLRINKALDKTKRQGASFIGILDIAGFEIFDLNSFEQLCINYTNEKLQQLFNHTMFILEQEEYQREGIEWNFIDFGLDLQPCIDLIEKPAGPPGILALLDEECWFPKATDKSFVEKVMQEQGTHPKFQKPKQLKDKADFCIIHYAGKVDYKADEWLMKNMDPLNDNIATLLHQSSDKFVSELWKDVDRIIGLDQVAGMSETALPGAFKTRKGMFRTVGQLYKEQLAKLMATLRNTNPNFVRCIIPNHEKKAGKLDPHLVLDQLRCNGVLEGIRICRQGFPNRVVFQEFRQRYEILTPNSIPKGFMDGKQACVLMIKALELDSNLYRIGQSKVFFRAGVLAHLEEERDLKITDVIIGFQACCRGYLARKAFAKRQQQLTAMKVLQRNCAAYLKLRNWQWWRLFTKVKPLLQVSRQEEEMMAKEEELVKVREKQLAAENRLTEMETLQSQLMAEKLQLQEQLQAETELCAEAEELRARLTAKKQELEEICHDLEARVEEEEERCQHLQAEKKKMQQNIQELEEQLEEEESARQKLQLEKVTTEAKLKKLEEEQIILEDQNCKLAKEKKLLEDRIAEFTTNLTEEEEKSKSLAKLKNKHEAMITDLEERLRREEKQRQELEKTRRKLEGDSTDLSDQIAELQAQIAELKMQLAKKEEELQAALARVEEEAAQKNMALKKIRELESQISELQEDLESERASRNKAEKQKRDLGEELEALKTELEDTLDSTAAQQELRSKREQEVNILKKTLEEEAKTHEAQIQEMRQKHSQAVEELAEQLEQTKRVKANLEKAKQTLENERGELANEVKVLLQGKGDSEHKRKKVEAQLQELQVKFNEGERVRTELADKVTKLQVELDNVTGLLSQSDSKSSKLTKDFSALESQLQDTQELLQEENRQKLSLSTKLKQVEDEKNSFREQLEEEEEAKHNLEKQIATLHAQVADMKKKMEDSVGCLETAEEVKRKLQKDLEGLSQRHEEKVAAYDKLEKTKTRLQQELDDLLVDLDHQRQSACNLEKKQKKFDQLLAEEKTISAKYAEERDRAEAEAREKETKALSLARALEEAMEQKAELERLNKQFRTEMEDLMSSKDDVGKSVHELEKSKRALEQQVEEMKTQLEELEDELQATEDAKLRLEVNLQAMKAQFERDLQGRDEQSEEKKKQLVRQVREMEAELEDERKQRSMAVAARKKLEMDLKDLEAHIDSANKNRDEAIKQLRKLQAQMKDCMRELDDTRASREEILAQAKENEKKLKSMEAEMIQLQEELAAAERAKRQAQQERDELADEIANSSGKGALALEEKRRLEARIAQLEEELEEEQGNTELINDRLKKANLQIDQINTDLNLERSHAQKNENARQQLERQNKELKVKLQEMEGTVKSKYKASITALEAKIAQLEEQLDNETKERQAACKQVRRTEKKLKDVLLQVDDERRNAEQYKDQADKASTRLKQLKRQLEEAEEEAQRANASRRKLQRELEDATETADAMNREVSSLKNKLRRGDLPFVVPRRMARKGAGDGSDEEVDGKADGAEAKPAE
Experiment [3] addresses High mobility group protein B1 (human) (UniProt P09429). The experiment is described as above.
Experiment [4] addresses Myosin IIA (human) (UniProt P35579). As to the kind of experiment: control (background) lane of the PolyHis pull-down, no bait peptides detected, mass spectrometry.
Experiment [5] addresses High mobility group protein B1 (human) (UniProt P09429). The description is as above.

Chain of High mobility group protein B1 (human) (P09429 whole entry): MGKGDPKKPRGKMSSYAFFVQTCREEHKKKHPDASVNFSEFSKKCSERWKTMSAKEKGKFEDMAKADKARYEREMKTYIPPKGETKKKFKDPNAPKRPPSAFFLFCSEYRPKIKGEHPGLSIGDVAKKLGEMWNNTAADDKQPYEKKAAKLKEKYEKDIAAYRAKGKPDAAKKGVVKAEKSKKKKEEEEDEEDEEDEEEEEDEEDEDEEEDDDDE

As for “IgG control (R&D Systems Inc.) (antibody)”, in experiment [1], the sCD27 value left after depletion worked out at 1.4 ng/mL.
Regarding “recombinant sCD27 containing 6x his-Tag at the carboxyl terminus (from UniProt P26842 20-189) (receptor)”, the figures for the TPC (total peptide count) in Lane 2 (positive) (with Myosin IIA (human) [2]; in experiment [3]) were 79 peptides and 44 peptides, respectively. Further, the TPC (total peptide count) in Lane 4 (background) in the experiment with Myosin IIA (human) [4] amounted to 14 peptides; in experiment [5], 5 peptides.

Source of the values: patent publication US20140341931A1.
